Laboratory results from PMC8204385 (Biophysical Journal, 2021).

B1: SLAM peptide (cytoplasmic tail of SLAM, 77 aa, singly phosphorylated) (peptide)
peptide: QLRRRGKTNHYQTTVEKKSLTIYAQVQKPGPLQKKLDSFPAQDPCTTIYVAATEPVPESVQETNSITVYASVTLPES
modifications: biotin on the N-terminus; phosphotyrosine in the ITSM (position 327 in the native sequence)
notes: cytoplasmic tail of SLAM, 77 aa; only the last tyrosine (327) is phosphorylated; source: synthetic peptide (Peptide Protein Research)
B2: Human SHP-1 with an N-terminal 6x His tag (enzyme)
chain: not shown

Legend:
[1] = target: B2; assay: SPR; biotinylated peptide on streptavidin-coupled CM5 chip (25-100 RU), SHP-1 injected 45 s at 10 uL/min; Biacore T200; 37°C; 10 mM HEPES pH 7.4, 150 mM NaCl, 3 mM EDTA, 0.05% Tween 20, 1 mM dithiothreitol; constants from the fit of the extended MPDPDE model; conditions: both partners purified
[2] = target: B1; assay: cell-based or functional assay

Binder | Kd [1] | koff [1] | kon [1] | ratio kcat(tethered)/kcat(solution) from the SPR assay (allosteric activation of SHP-1) [2]
B1 | 130 µM | 1.7 s⁻¹ | 20000 M⁻¹ s⁻¹ | –
B2 | – | – | – | 6.2 fold
